The values below are quoted from earlier work in paper PMC2586657.

The target in the data set is alpha-factor (Saccharomyces cerevisiae) (UniProt P01149).

The term Kd denotes the constant that tells how readily two partners part at equilibrium. For the substance “alpha-factor receptor (from UniProt D6VTK4)”, the Kd was 5 nM.
